What was measured:
[1] = mouse, in vivo; cited from earlier work
[2] = in vivo; cited from earlier work
[3] = tested on: HEK-SST2 xenografts; conditions: female, athymic nude-Foxn1^nu/Foxn1^+, mouse, in vivo, 200 pmol, 1 h
[4] = format: physicochemical; conditions: pH 7.4
Experimental: Briefly, the radiotracer (10 µl, 1 µM) was added to 1 ml of a 1:1 pre-saturated mixture of 1-octanol and phosphate-buffered saline (PBS pH 7.4). The solution was vortexed for 30 min and then centrifuged at 3,000 rpm to achieve phase separation. Aliquots of 0.1 ml from each phase were collected and measured in a γ-counter. The distribution coefficient was calculated as the average of the logarithmic values (n = 3) of the ratio between the radioactivity in the organic and PBS phases. [^68Ga]Ga-DOTA-TOC was used as a reference.

[5] = tested on: HEK-SST2 cells; assay: Cellular uptake and distribution on intact HEK-SST2 cells; format: cell-based, human; conditions: specific uptake, after 4 h at 37°C
Experimental: At the defined time points, the medium was removed, and the cells were washed twice with ice-cold PBS. The cells were then treated twice for 5 min with ice-cold glycine solution (0.05 M, pH 2.8) to detach the cell membrane-bound fraction (acid released). Afterward, the cells containing the internalized fraction were detached using NaOH 1 M at 37°C and collected for measurement. [^68Ga]Ga-DOTA-TOC was evaluated as a reference.

Molecule	Kidney dose [1]	Total-body absorbed dose [1]	Effective dose [2]	Adrenal uptake [3]	Blood uptake [3]	Bone uptake [3]	Heart uptake [3]	Intestine uptake [3]	Kidneys uptake [3]	Liver uptake [3]	Lung uptake [3]	Pancreas uptake [3]	Pituitary uptake [3]	SST2-tumor uptake [3]	Stomach uptake [3]	log D(O/PBS pH 7.4) [4]	Cellular uptake (surface bound + internalized) [5]
[^68Ga]Ga-DOTA-Tyr^3-octreotate [[^68Ga]Ga-DOTA-TATE]	9.01 × 10^−2 mGy/MBq	1.27 × 10^−3 mGy/MBq	0.021-0.0257 mSv/MBq	–	–	–	–	–	–	–	–	–	–	–	–	–	–
C[C@@H](O)[C@@H]1NC(=O)[C@H](CCCCN)NC(=O)[C@@H](Cc2c[nH]c3ccccc23)NC(=O)[C@H](Cc2ccc(O)cc2)NC(=O)[C@@H](NC(=O)[C@@H](Cc2ccccc2)NC(=O)CN2CCN(CC(=O)O)CCN(CC(=O)O)CCN(CC(=O)O)CC2)CSSC[C@@H](C(=O)N[C@H](CO)[C@@H](C)O)NC1=O [[^68Ga]Ga-DOTA-TOC] [[^68Ga]Ga-DOTA-Tyr^3-octreotide, metal not drawn]	–	–	0.021-0.0257 mSv/MBq	2.57 ± 0.78 %IA/g	0.63 ± 0.09 %IA/g	0.49 ± 0.07 %IA/g	0.27 ± 0.03 %IA/g	1.39 ± 0.28 %IA/g	8.37 ± 0.84 %IA/g	0.58 ± 0.07 %IA/g	1.68 ± 0.32 %IA/g	4.77 ± 1.16 %IA/g	3.29 ± 0.63 %IA/g	6.64 ± 1.11 %IA/g	3.73 ± 0.36 %IA/g	−3.18 ± 0.11	79.0 ± 3.1%
